Patent publication US8609611B2, “Synthesis of small particles” (MAP Pharmaceuticals, Inc., priority 2001, dated 2013)
Read-outs that look alike come from different tables or passages of the source.

Legend:
[1] = Size exclusion chromatography: biochemical integrity, monomer content; assay type: physicochemical; settings: by anti-solvent used in processing
Experimental: A protein-Pak 125 column (Waters, USA) was used for insulin. The mobile phase consisted of 50 mM sodium phosphate buffer at pH 3 with 300 mM sodium chloride. The powder samples were dissolved to prepare 1 mg/mL solution in deionised water by gentle shaking for 10 minutes to have complete dissolution. The supernatant was filtered through […] membrane filter and then injected into the HPLC column. […] The software Millennium 3.5 was used in the quantification of the monomer content.

[2] = Median particle size by laser diffraction; assay type: physicochemical
Text: These fine insulin particles may aggregate to form larger particles due to intermolecular interaction between the molecules. […] Insulin precipitated as nano-sized particles, was also agglomerated to micron-sized particles.

[3] = Size of precipitated primary particles (SEM images); assay type: physicochemical
Text: These fine insulin particles may aggregate to form larger particles due to intermolecular interaction between the molecules.

[4] = Aerosol performance by Cascade Impactor (5 stage Marple-Miller Impactor), fine particle mass; assay type: physicochemical; settings: 60 L/min, Dinkihaler, FIG. 6
Experimental: In order to determine the aerosol performance of the collected fine protein particles, in vitro testing of the particles was assessed using a 5 stage Marple-Miller Impactor (Model 160, MSP Corporation, USA) with cut-off diameters of 10.0, 5.0, 2.5, 1.25, and 0.625 μm. The Marple-Miller impactor consisted of a stainless steel inlet throat, five impaction stages and an integral filter stage. The stages were previously coated with propylene glycol/methanol (50:50) to prevent particle bounce, thus minimising the probability of carry over of coarse particles onto lower stages.
A mass of 10-20 mg of insulin was weighed into a gelatin capsule (size 3, Park Davis, Australia) and was immediately dispersed by a powder inhaler device, Dinkihaler (Aventis, Frankfurt, Germany) into the Marple Miller Impactor at 60 L/min using a vacuum source (ERWEKA GMBH, Germany). The fraction of the protein recovered in each stage was calculated by measuring the absorbance of the protein solution against the absorbance of a standard 1% solution of insulin.

[5] = values reported in the literature; cited from earlier work

| Substance | retention of biological activity as indicated by the in vitro test for monomer content [1] | median particle size (laser diffraction) of agglomerated powder [2] [μm] | median particle size (laser diffraction) of agglomerated powder ([2]; listed as Insulin) | size of nano-sized particles as precipitated ([3]; modified (dual chamber) ASES apparatus) | size of nano-sized particles as precipitated ([3]; single-stage apparatus) | fine particle fraction (%<5 μm) [4] | maximum FPM for insulin obtained by other methods [5] [%] |
| --- | --- | --- | --- | --- | --- | --- | --- |
| CO2-ethanol: Insulin particles precipitated from aqueous solution using CO2-20 mol % ethanol as anti-solvent | significant deactivation | – | – | – | – | – | – |
| Ethane-ethanol | retention of biological activity | – | – | – | – | – | – |
| insulin: Low endotoxin bovine insulin (Sigma), micronised from aqueous solution by the ASES process into fine particles | – | 5 | about 5 μm | 50-500 nm | 50-500 nm | at least 42% | ≤ 10 |
